Reference: patent US20260167721A1 (ABLEXIS, published 2026)

Key:
[1] = molecular target: T1, CD3 on Jurkat wild-type cells (UniProt P07766 23-207; P04234 22-171; P09693 23-182); assay: flow cytometry on Jurkat WT cells, antibody at 1 ug/ml
T1 construct: whole, on cells; also called Jurkat WT

[2] = molecular target: T1, CD3 on Jurkat wild-type cells; assay: flow cytometry on Jurkat WT cells, antibody at 10 ug/ml
CD33 on KILR-HL60 cells [3] = molecular target: T2, CD33 on KILR-HL60 cells (UniProt P20138 18-364, limits assumed); assay: flow cytometry on KILR-HL60 (CD33 expressing) cells, antibody at 1 ug/ml
T2 construct: whole, on cells; Target of the gemtuzumab arm; also called CD33 expressing cells

CD33 on KILR-HL60 cells [4] = molecular target: T2, CD33 on KILR-HL60 cells; assay: flow cytometry on KILR-HL60 (CD33 expressing) cells, antibody at 10 ug/ml

T2 sequence (P20138 18-364 limits assumed): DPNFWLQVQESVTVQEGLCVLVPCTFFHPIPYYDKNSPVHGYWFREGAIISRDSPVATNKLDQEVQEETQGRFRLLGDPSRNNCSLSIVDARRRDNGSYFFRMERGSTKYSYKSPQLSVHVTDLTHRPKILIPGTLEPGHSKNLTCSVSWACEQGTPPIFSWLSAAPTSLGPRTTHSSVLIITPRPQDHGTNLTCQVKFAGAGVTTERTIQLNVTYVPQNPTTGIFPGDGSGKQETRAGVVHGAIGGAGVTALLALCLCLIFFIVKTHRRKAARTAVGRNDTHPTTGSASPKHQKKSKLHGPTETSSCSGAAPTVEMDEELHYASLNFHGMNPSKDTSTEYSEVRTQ
T1 sequence (P07766 23-207, chain 1 of 3): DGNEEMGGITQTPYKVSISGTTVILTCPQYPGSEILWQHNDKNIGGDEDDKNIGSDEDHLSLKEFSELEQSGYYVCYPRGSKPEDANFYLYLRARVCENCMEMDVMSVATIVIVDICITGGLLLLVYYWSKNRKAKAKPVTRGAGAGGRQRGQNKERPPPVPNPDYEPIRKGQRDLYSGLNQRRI
T1 sequence (P04234 22-171, chain 2 of 3): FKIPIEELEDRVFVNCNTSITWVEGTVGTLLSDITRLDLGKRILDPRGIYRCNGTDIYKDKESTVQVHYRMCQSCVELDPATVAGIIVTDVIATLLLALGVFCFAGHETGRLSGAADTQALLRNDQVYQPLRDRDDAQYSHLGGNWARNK
T1 sequence (P09693 23-182, chain 3 of 3): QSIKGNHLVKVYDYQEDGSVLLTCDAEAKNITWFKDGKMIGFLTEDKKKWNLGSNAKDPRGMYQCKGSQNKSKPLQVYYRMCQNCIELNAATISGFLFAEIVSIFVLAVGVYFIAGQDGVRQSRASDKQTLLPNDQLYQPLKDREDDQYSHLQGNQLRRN

Binder	flow cytometry signal [1]	flow cytometry signal [2]	flow cytometry signal (CD33 on KILR-HL60 cells [3])	flow cytometry signal (CD33 on KILR-HL60 cells [4])
CD3 × CD33-BspAb39 (bispecific antibody) chain 1: not shown chain 2: EVQLVQSGAEVKKPGSSVKVSCKASGYTITDSNIHWVRQAPGQSLEWIGYIYPYNGGTDYNQKFKNRATLTVDNPTNTAYMELSSLRSEDTAFYYCVNGNPWLAYWGQGTLVTVSSASTKGPSVFPLAPSSKSTSGGTAALGCLVKDYFPEPVTVSWNSGALTSGVHTFPAVLQSSGLYSLSSVVTVPSSSLGTQTYICNVNHKPSNTKVDKRVEPKSCDKTHTCPPCPAPEFEGGPSVFLFPPKPKDTLMISRTPEVTCVVVDVSHEDPEVKFNWYVDGVEVHNAKTKPREEQYNSTYRVVSVLTVLHQDWLNGKEYKCKVSNKALPASIEKTISKAKGQPREPQVCTLPPSREEMTKNQVSLSCAVKGFYPSDIAVEWESNGQPENNYKTTPPVLDSDGSFFLVSKLTVDKSRWQQGNVFSCSVMHEALHNRFTQKSLSLSPGK chain 3: DIQLTQSPSTLSASVGDRVTITCRASESLDNYGIRFLTWFQQKPGKAPKLLMYAASNQGSGVPSRFSGSGSGTEFTLTISSLQPDDFATYYCQQTKEVPWSFGQGTKVEVKRTVAAPSVFIFPPSDEQLKSGTASVVCLLNNFYPREAKVQWKVDNALQSGNSQESVTEQDSKDSTYSLSSTLTLSKADYEKHKVYACEVTHQGLSSPVTKSFNRGEC	2160	2740	541000	572000
CD3 × CD33-BspAb51 (bispecific antibody) chain 1: not shown chain 2: EVQLVQSGAEVKKPGSSVKVSCKASGYTITDSNIHWVRQAPGQSLEWIGYIYPYNGGTDYNQKFKNRATLTVDNPTNTAYMELSSLRSEDTAFYYCVNGNPWLAYWGQGTLVTVSSASTKGPSVFPLAPSSKSTSGGTAALGCLVKDYFPEPVTVSWNSGALTSGVHTFPAVLQSSGLYSLSSVVTVPSSSLGTQTYICNVNHKPSNTKVDKRVEPKSCDKTHTCPPCPAPEFEGGPSVFLFPPKPKDTLMISRTPEVTCVVVDVSHEDPEVKFNWYVDGVEVHNAKTKPREEQYNSTYRVVSVLTVLHQDWLNGKEYKCKVSNKALPASIEKTISKAKGQPREPQVCTLPPSREEMTKNQVSLSCAVKGFYPSDIAVEWESNGQPENNYKTTPPVLDSDGSFFLVSKLTVDKSRWQQGNVFSCSVMHEALHNRFTQKSLSLSPGK chain 3: DIQLTQSPSTLSASVGDRVTITCRASESLDNYGIRFLTWFQQKPGKAPKLLMYAASNQGSGVPSRFSGSGSGTEFTLTISSLQPDDFATYYCQQTKEVPWSFGQGTKVEVKRTVAAPSVFIFPPSDEQLKSGTASVVCLLNNFYPREAKVQWKVDNALQSGNSQESVTEQDSKDSTYSLSSTLTLSKADYEKHKVYACEVTHQGLSSPVTKSFNRGEC	12000	24300	509000	691000
CD3 × CD33-BspAb37 (bispecific antibody) chain 1: not shown chain 2: EVQLVQSGAEVKKPGSSVKVSCKASGYTITDSNIHWVRQAPGQSLEWIGYIYPYNGGTDYNQKFKNRATLTVDNPTNTAYMELSSLRSEDTAFYYCVNGNPWLAYWGQGTLVTVSSASTKGPSVFPLAPSSKSTSGGTAALGCLVKDYFPEPVTVSWNSGALTSGVHTFPAVLQSSGLYSLSSVVTVPSSSLGTQTYICNVNHKPSNTKVDKRVEPKSCDKTHTCPPCPAPEFEGGPSVFLFPPKPKDTLMISRTPEVTCVVVDVSHEDPEVKFNWYVDGVEVHNAKTKPREEQYNSTYRVVSVLTVLHQDWLNGKEYKCKVSNKALPASIEKTISKAKGQPREPQVCTLPPSREEMTKNQVSLSCAVKGFYPSDIAVEWESNGQPENNYKTTPPVLDSDGSFFLVSKLTVDKSRWQQGNVFSCSVMHEALHNRFTQKSLSLSPGK chain 3: DIQLTQSPSTLSASVGDRVTITCRASESLDNYGIRFLTWFQQKPGKAPKLLMYAASNQGSGVPSRFSGSGSGTEFTLTISSLQPDDFATYYCQQTKEVPWSFGQGTKVEVKRTVAAPSVFIFPPSDEQLKSGTASVVCLLNNFYPREAKVQWKVDNALQSGNSQESVTEQDSKDSTYSLSSTLTLSKADYEKHKVYACEVTHQGLSSPVTKSFNRGEC	10900	32800	486000	758000
CD3 × CD33-BspAb42 (bispecific antibody) chain 1: EVQLVESGGGLVKPGGSLRLSCAASGFTLSSYSMNWVRQAPGKCLEWVSSISRSGSYIYYADSVKGRFTISRDNAKNSLYLQMNSLRAEDTAVYYCAREKWELLYFDYWGQGTLVTVSSGGGGSGGGGSGGGGSGGGGSNFMLTQPHSVSESPGKTVTISCTRSSGSIASNYVQWYQQRPGSSPTTVIYEDNQRPSGVPDRFSGSIDSSSNSASLTISGLKTEDEADYYCQSYDSSNRVFGCGTKLTVLDKTHTCPPCPAPEFEGGPSVFLFPPKPKDTLMISRTPEVTCVVVDVSHEDPEVKFNWYVDGVEVHNAKTKPREEQYNSTYRVVSVLTVLHQDWLNGKEYKCKVSNKALPASIEKTISKAKGQPREPQVYTLPPCREEMTKNQVSLWCLVKGFYPSDIAVEWESNGQPENNYKTTPPVLDSDGSFFLYSKLTVDKSRWQQGNVFSCSVMHEALHNHYTQKSLSLSPGK chain 2: EVQLVQSGAEVKKPGSSVKVSCKASGYTITDSNIHWVRQAPGQSLEWIGYIYPYNGGTDYNQKFKNRATLTVDNPTNTAYMELSSLRSEDTAFYYCVNGNPWLAYWGQGTLVTVSSASTKGPSVFPLAPSSKSTSGGTAALGCLVKDYFPEPVTVSWNSGALTSGVHTFPAVLQSSGLYSLSSVVTVPSSSLGTQTYICNVNHKPSNTKVDKRVEPKSCDKTHTCPPCPAPEFEGGPSVFLFPPKPKDTLMISRTPEVTCVVVDVSHEDPEVKFNWYVDGVEVHNAKTKPREEQYNSTYRVVSVLTVLHQDWLNGKEYKCKVSNKALPASIEKTISKAKGQPREPQVCTLPPSREEMTKNQVSLSCAVKGFYPSDIAVEWESNGQPENNYKTTPPVLDSDGSFFLVSKLTVDKSRWQQGNVFSCSVMHEALHNRFTQKSLSLSPGK chain 3: DIQLTQSPSTLSASVGDRVTITCRASESLDNYGIRFLTWFQQKPGKAPKLLMYAASNQGSGVPSRFSGSGSGTEFTLTISSLQPDDFATYYCQQTKEVPWSFGQGTKVEVKRTVAAPSVFIFPPSDEQLKSGTASVVCLLNNFYPREAKVQWKVDNALQSGNSQESVTEQDSKDSTYSLSSTLTLSKADYEKHKVYACEVTHQGLSSPVTKSFNRGEC	12200	26400	453000	485000
CD3 × CD33-BspAb45 (bispecific antibody) chain 1: EVQLVESGGGLVQPGGSLRLSCAASGFTFSRYSMNWVRQAPGKCLEWVSYISSSSSSIYYADSVKGRFTISRDNAKNSLYLQMNSLRDEDTAVYYCARDRRATLDYWGQGTLVTVSSGGGGSGGGGSGGGGSGGGGSNFMLTQPHSVSESPGKTVTISCTRSSGSIASNYVQWYQQRPGSSPTTVIYEDNQRPSGVPDRFSGSIDSSSNSASLTISGLKTEDEADYYCQSYDSSNHVFGCGTKLTVLDKTHTCPPCPAPEFEGGPSVFLFPPKPKDTLMISRTPEVTCVVVDVSHEDPEVKFNWYVDGVEVHNAKTKPREEQYNSTYRVVSVLTVLHQDWLNGKEYKCKVSNKALPASIEKTISKAKGQPREPQVYTLPPCREEMTKNQVSLWCLVKGFYPSDIAVEWESNGQPENNYKTTPPVLDSDGSFFLYSKLTVDKSRWQQGNVFSCSVMHEALHNHYTQKSLSLSPGK chain 2: EVQLVQSGAEVKKPGSSVKVSCKASGYTITDSNIHWVRQAPGQSLEWIGYIYPYNGGTDYNQKFKNRATLTVDNPTNTAYMELSSLRSEDTAFYYCVNGNPWLAYWGQGTLVTVSSASTKGPSVFPLAPSSKSTSGGTAALGCLVKDYFPEPVTVSWNSGALTSGVHTFPAVLQSSGLYSLSSVVTVPSSSLGTQTYICNVNHKPSNTKVDKRVEPKSCDKTHTCPPCPAPEFEGGPSVFLFPPKPKDTLMISRTPEVTCVVVDVSHEDPEVKFNWYVDGVEVHNAKTKPREEQYNSTYRVVSVLTVLHQDWLNGKEYKCKVSNKALPASIEKTISKAKGQPREPQVCTLPPSREEMTKNQVSLSCAVKGFYPSDIAVEWESNGQPENNYKTTPPVLDSDGSFFLVSKLTVDKSRWQQGNVFSCSVMHEALHNRFTQKSLSLSPGK chain 3: DIQLTQSPSTLSASVGDRVTITCRASESLDNYGIRFLTWFQQKPGKAPKLLMYAASNQGSGVPSRFSGSGSGTEFTLTISSLQPDDFATYYCQQTKEVPWSFGQGTKVEVKRTVAAPSVFIFPPSDEQLKSGTASVVCLLNNFYPREAKVQWKVDNALQSGNSQESVTEQDSKDSTYSLSSTLTLSKADYEKHKVYACEVTHQGLSSPVTKSFNRGEC	19200	38300	640000	741000
CD3 × CD33-BspAb44 (bispecific antibody) chain 1: EVQLVESGGGLVKPGGSLRLSCAASGFTFSRYSMNWVRQAPGKCLKWVSSISSSGSYKYYADSVKGRFTISRDNAKNSLYLQMNSLRAEDTAVYYCAREPPTLGMDYWGQGTLVTVSSGGGGSGGGGSGGGGSGGGGSNFMLTQPHSVSESPGKTVTISCTRSSGSIASNYVQWYQQRPGSSPTTVIYEDNQRPSGVPDRFSGSIDSSSNSASLTISGLKTEDEADYYCQSFDNSNRVFGCGTKLTVLDKTHTCPPCPAPEFEGGPSVFLFPPKPKDTLMISRTPEVTCVVVDVSHEDPEVKFNWYVDGVEVHNAKTKPREEQYNSTYRVVSVLTVLHQDWLNGKEYKCKVSNKALPASIEKTISKAKGQPREPQVYTLPPCREEMTKNQVSLWCLVKGFYPSDIAVEWESNGQPENNYKTTPPVLDSDGSFFLYSKLTVDKSRWQQGNVFSCSVMHEALHNHYTQKSLSLSPGK chain 2: EVQLVQSGAEVKKPGSSVKVSCKASGYTITDSNIHWVRQAPGQSLEWIGYIYPYNGGTDYNQKFKNRATLTVDNPTNTAYMELSSLRSEDTAFYYCVNGNPWLAYWGQGTLVTVSSASTKGPSVFPLAPSSKSTSGGTAALGCLVKDYFPEPVTVSWNSGALTSGVHTFPAVLQSSGLYSLSSVVTVPSSSLGTQTYICNVNHKPSNTKVDKRVEPKSCDKTHTCPPCPAPEFEGGPSVFLFPPKPKDTLMISRTPEVTCVVVDVSHEDPEVKFNWYVDGVEVHNAKTKPREEQYNSTYRVVSVLTVLHQDWLNGKEYKCKVSNKALPASIEKTISKAKGQPREPQVCTLPPSREEMTKNQVSLSCAVKGFYPSDIAVEWESNGQPENNYKTTPPVLDSDGSFFLVSKLTVDKSRWQQGNVFSCSVMHEALHNRFTQKSLSLSPGK chain 3: DIQLTQSPSTLSASVGDRVTITCRASESLDNYGIRFLTWFQQKPGKAPKLLMYAASNQGSGVPSRFSGSGSGTEFTLTISSLQPDDFATYYCQQTKEVPWSFGQGTKVEVKRTVAAPSVFIFPPSDEQLKSGTASVVCLLNNFYPREAKVQWKVDNALQSGNSQESVTEQDSKDSTYSLSSTLTLSKADYEKHKVYACEVTHQGLSSPVTKSFNRGEC	113000	84800	640000	475000
